Results published in US8586357B2, “Markers of definitive endoderm” (ViaCyte, Inc., priority 2003, dated 2013).

Key:
Format in all cases: cell-based, human
[1] = test system: hESCs; assay: Immunocytochemistry: SOX17, AFP and TM antibody labeling of differentiating hESCs
Description: As described in detail herein, the SOX17 antibody was utilized to specifically examine effects of various treatments and differentiation procedures aimed at the production of SOX17 positive definitive endoderm cells. Other antibodies reactive to AFP, SPARC and Thrombomodulin were also employed to rule out the production of visceral and parietal endoderm (extra-embryonic endoderm).
As evidence that the SOX17 antibody is specific for human SOX17 protein and furthermore marks definitive endoderm, partially differentiated hESCs were co-labeled with SOX17 and AFP antibodies. […] However, AFP and SOX7 are not expressed in definitive endoderm cells at levels detectable by ICC, and thus, they be can employed as negative markers for bonifide definitive endoderm cells. It was shown that SOX17 antibody labels populations of cells that exist as discrete groupings of cells or are intermingled with AFP positive cells. […] Similarly, since parietal endoderm has also been reported to express SOX17, antibody co-labeling with SOX17 together with the parietal markers SPARC and/or Thrombomodulin (TM) can be used to identify the SOX17^+ cells which are parietal endoderm. As shown in FIGS. 6A-C, Thrombomodulin and SOX17 co-labelled parietal endoderm cells were produced by random differentiation of hES cells.
With the SOX17 antibody and Q-PCR tools described above we have explored a number of procedures capable of efficiently programming ESCs to become SOX17^hi/AFP^lo/SPARC/TM^lo definitive endoderm cells. We applied a variety of differentiation protocols aimed at increasing the number and proliferative capacity of these cells as measured at the population level by Q-PCR for SOX17 gene expression and at the level of individual cells by antibody labeling of SOX17 protein.
To determine the effect of TGFβ factor treatment at the individual cell level, a time course of TGFβ factor addition was examined using SOX17 antibody labeling. As previously shown in FIGS. 10A-F, there was a dramatic increase in the relative number of SOX17 labeled cells over time.
In these experiments, hESCs were differentiated by growing in RPMI medium (Invitrogen, Carlsbad, Calif.; cat#61870-036) supplemented with 0.5%, 2.0% or 10% FBS and either with or without 100 ng/mL activin A for 6 days. In addition, a gradient of FBS ranging from 0.5% to 2.0% over the first three days of differentiation was also used in conjunction with 100 ng/mL of activin A. After the 6 days, replicate samples were collected from each culture condition and analyzed for relative gene expression by real-time quantitative PCR. The remaining cells were fixed for immunofluorescent detection of SOX17 protein.

[2] = test system: hESCs; assay: AFP antibody-labeled cell number by flow cytometry; details: presence vs absence of activin A; FIGS. 9A-B
Description: As a further evidence of the specificity of the SOX17^hi/AFP^lo/TM^lo/SPARC^lo marker profile as predictive of definitive endoderm, SOX17 and AFP gene expression was quantitatively compared to the relative number of antibody labeled cells.

[3] = test system: hESCs; assay: CXCR4+ cell number by flow cytometry (FACS); details: 0, 10 or 100 ng/mL; 7 days; 0.5%-2% FBS; FIGS. 30A-C
Method: hESCs were differentiated in RPMI media supplemented with 0.5%-2% FBS (increased from 0.5% to 1.0% to 2.0% over the first 3 days of differentiation) and either 0, 10, or 100 ng/mL of activin A. After 7 days of differentiation the cells were dissociated in PBS without Ca^2+/Mg^2+ containing 2% FBS and 2 mM (EDTA) for 5 minutes at room temperature. The cells were filtered through 35 um nylon filters, counted and pelleted. Pellets were resuspended in a small volume of 50% human serum/50% normal donkey serum and incubated for 2 minutes on ice to block non-specific antibody binding sites. To this, 1 uL of mouse anti-CXCR4 antibody (Abeam, cat# ab10403-100) was added per 50 uL (containing approximately 10^5 cells) and labeling proceeded for 45 minutes on ice. Cells were washed by adding 5 mL of PBS containing 2% human serum (buffer) and pelleted. A second wash with 5 mL of buffer was completed then cells were resuspended in 50 uL buffer per 10^5 cells. […] Cells were resuspended at 5×10^6 cells/mL in buffer and analyzed and sorted using a FACS Vantage (Beckton Dickenson) by the staff at the flow cytometry core facility (The Scripps Research Institute). Cells were collected directly into RLT lysis buffer (Qiagen) for subsequent isolation of total RNA for gene expression analysis by real-time quantitative PCR.

[4] = test system: hESCs; assay: Isolation of definitive endoderm cells by FACS using cell surface markers of Table 5 (Example 13); details: 100, 50 or 25 ng/ml activin A; Example 13 written in present tense
Method: Using methods, such as those described in the above Examples, hESCs are differentiated to produce definitive endoderm. In particular, to increase yield and purity of definitive endoderm in differentiating cell cultures, the serum concentration of the medium is controlled as follows: 0% FBS on day 1, 0.2% FBS on day 2 and 2.0% FBS on days 3-6. Differentiating cell populations are grown in the presence of 100 ng/ml, 50 ng/ml or 25 ng/ml activin A, whereas non-differentiating control populations are grown in the absence of activin A.
An appropriate amount of labeled antibody that binds to one of the markers listed above is added to a sample of each culture and labeling proceeds on ice. Cells are washed by adding PBS and pelleted. A second wash with buffer is completed then cells are resuspended. Secondary antibody (FITC conjugated secondary antibody is added and allowed to label for about 30 minutes followed by two washes in buffer as above. Cells are resuspended and analyzed and sorted using a FACS. Cells are collected directly into RLT lysis buffer for subsequent isolation of total RNA for gene expression analysis by real-time quantitative PCR.

B1: Activin A: growth factor of the TGFβ superfamily, Nodal/Activin subgroup; definitive endoderm inducer (protein, UniProt P08476 311-426, looked up)
Inhibin beta A chain: GLECDGKVNICCKKQFFVSFKDIGWNDWIIAPSGYHANYCEGECPSHIAGTSGSSLSFHSTVINHYRMRGHSPFANLKSCCVPTKLRPMSMLYYDDGQNIIKKDIQNMIVEECGCS
[1]; FIG. 7B
  difference in SOX17 antibody-labeled cell number, Activin A vs retinoic acid treated hESCs: 10 fold
[1]; FIG. 22
  SOX17+ cell number, dose response: dose-dependent increase
[1]; high dose activin A, FBS at 10% (v/v), 6 days
  frequency of SOX17+ cells: much lower frequency
[1]; high dose activin A, low FBS concentration (0.5%-2.0%), 6 days
  distribution of SOX17+ cells in the culture: ubiquitously distributed
[2]
  decrease in AFP antibody-labeled cell number: approximately 7 fold
[3]
  number of CXCR4+ cells as dose is increased: increase dramatically
[4]
  number of cells positive for the Table 4 markers as dose is increased: increase significantly
